# The supplement of paper PMC9170038
# Test system: MS2 coat protein
# Assay: apparent KD of MS2 coat protein; designed switch direction (-1 OFF switch, 1 ON switch): 1; higher = weaker reporter binding
# Summary of the method: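 The reported apparent KD is a per-design median over clusters, from curve fits of normalised cluster fluorescence. Protein titrations used SNAP-549-labelled MS2 coat protein, doubled from 0.7 or 1.5 nM to 3 µM, in Tris-HCl pH 7.5 buffer with KCl, MgCl2, BSA, DTT, tRNA and Tween-20, with no input, 200 uM small-molecule ligand, or an oligonucleotide input. The RNA switches were transcribed on Illumina chips by stalled E. coli RNA polymerase.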
# [1] = Eterna round: R95, input ligand: FMN 200 uM
# [2] = Eterna round: R95, input ligand: microRNA oligo, concentration not stated
# [3] = Eterna round: R95, input ligand: none
# [4] = input ligand: microRNA oligo, concentration not stated
Sequence,apparent KD of MS2 coat protein [1] [µM],apparent KD of MS2 coat protein [2] [µM],apparent KD of MS2 coat protein [3] [µM],apparent KD of MS2 coat protein (input ligand: FMN 200 uM) [µM],apparent KD of MS2 coat protein [4] [µM],apparent KD of MS2 coat protein (input ligand: none) [µM]
AUAAGUUUGAUGCUCGUCUCUCCGUACAAACAUGAGGAUCACCCAUGUGGUCGGGAAGUAGCCCGGCCAGUAUGGCA [Arbitius] (puzzle: Sensor for hsa-mir-208a),0.0433,0.018,0.0473,,,
AUAAGUUUGAUGCUCGUCUCUCCGUACAAACAUGAGGAUCACCCAUGUGGUCGGGUAGUAGCCCGGCCAGUAUGGCC [Ribiesreri] (puzzle: Sensor for hsa-mir-208a),0.0403,0.0203,0.0461,,,
AUAAGUUUGAUGCUCGUCUCUCCGUACUAACAUGAGGAUCACCCAUGUGGUCGGGAAGUAGCCCGGCCAGUAUGGCC [Lequteti] (puzzle: Sensor for hsa-mir-208a),0.0195,0.0194,0.0193,,,
"AUAAGUUUGAUGCUCGUCUCUUCGUACAGACAUGAGGAUCACCCAUGUAGUCGGGAAGUAGCCCGGCCAGUAUGACC [Usraisqu] (Eterna round: R96, puzzle: Sensor for hsa-mir-208a)",,,,0.285,0.0382,0.248
AUAAGUUUGAUGCUCGUCUCUUCGUACAGACAUGAGGAUCACCCAUGUAGUCGGGAAGUAGCCCGGCCAGUAUGACC [Usraisqu] (puzzle: Sensor for hsa-mir-208a),0.197,0.0405,0.468,,,
"AUAAUACAUGAGGAUCACCCAUGUAAUUUAACUUGUAAGAUCAAGGAUAUCAGCUCGUUUAGAGCUGAGAAGGUGAUCACAUGU [SSNG3/20-A3] (Eterna round: R96, puzzle: Same State NG 3)",,,,,0.0602,
"AUACAUGAGGAUCACCCAUGUAAUUAAUUAACUAGUAAGAUCUAGGAUAUCAGCUCGAAUAGAGCUGAGAAGGAGAUCACAUGU [SSNG3/21-A1] (Eterna round: R96, puzzle: Same State NG 3)",,,,,0.0312,
"AUACUCAUGUAAGGAUAUGCAGCCGUUUCGGCUGCAGAAGGUACUAUAAUACAUGAGGAUCACCCAUGUCUCUAUUAUUUAGUU [JL SSNG1 1.46] (Eterna round: R96, puzzle: Same State NG 1)",,,,0.0721,0.0466,0.0551
"AUAGUGUACGCAGGAUAUCGAUGAGGAACAUGAGGAUCACCCAUGUUGUGAGGAUCACCCAUGUAUGAGAAGGGCGACCCAUGU [Same State NG2 S1] (Eterna round: R96, puzzle: Same State NG 2)",,,,0.148,0.046,0.0577
AUAUAACAUGAGGAUCACCCAUGUCUCUAAAGUUGAGGAUAUGGGCAGGUUAUAUCCGAACCAGAAGGCGAAUUAU [SS1 Teenbexe 7] (puzzle: Same State 1),0.0745,0.0463,0.102,,,
"AUAUGAGGAGCAGGAUAUGCGAAGAAGAAAGAAGUAGAAGGGCUCAUGGGACGACAUGAGGAUCACCCAUGUACUACCCGAUGA [AK SSNG1-V2-8] (Eterna round: R96, puzzle: Same State NG 1)",,,,0.0498,0.0667,0.0559
AUAUUACAUGAGGAUCACCCAUGUCUCUAAAGUCGAGGAUAUGGGCAGGUUAUAUCCGAACCAGAAGGCGAAUUAU [SS1 Teenbexe 9] (puzzle: Same State 1),0.0669,0.317,0.633,,,
AUCCUACAUGAGGAUCACCCAUGUGACGCCUCAAUAGGAUAUGCGUGUGCCUUGGCGCAUGCAGAAGGAUUGGAGC [JL Aveso mod 4] (puzzle: Same State 1),0.0846,0.318,0.279,,,
AUCCUACAUGAGGAUCACCCAUGUGACGCCUCGAUAGGAUAUGCGUGUGCCUUGGCGCAUGCAGAAGGAUUGUAGC [JL Aveso mod 6] (puzzle: Same State 1),,0.0305,,,,
AUCCUACAUGAGGAUCACCCAUGUGAGGCCUCAAUAGGAUAUGCGUGUGCCUUGGCGCAUGCAGAAGGAUUGAAGC [JL Aveso mod 2] (puzzle: Same State 1),,0.159,,,,
AUCUCUGUGCCGCAGGAUAUACCAACGGCUACAUGAGGAUCACCCAUGUCAUACCGUCGAAAGUGGUAGAAGGGUGUGCACGAGC [Reteonar] (puzzle: Same State 2),0.0177,0.0906,0.113,,,
"AUGAAGAACUAAGGAUAUUGAAUACAUAUGUUUAACAUGAGGAUCACCCAUGUGGGUUGCGGUAUCGAGAAGGUAGAAUAAUAG [Mat - same State NG 2 - JL mod - D92] (Eterna round: R96, puzzle: Same State NG 2)",,,,0.0957,0.0703,0.123

Sequence,apparent KD of MS2 coat protein [1] [µM],apparent KD of MS2 coat protein [2] [µM],apparent KD of MS2 coat protein [3] [µM],apparent KD of MS2 coat protein (input ligand: FMN 200 uM) [µM],apparent KD of MS2 coat protein [4] [µM],apparent KD of MS2 coat protein (input ligand: none) [µM]
AUGCAGCCACCACAGGAUAUACGUGGAUCGACAUGAGGAUCACCCAUGUAUAUCCUAAUAAUUGCGUAGAAGGGUGGUCGGCUGG [Anatxeage] (puzzle: Same State 2),,0.362,,,,
"AUGCCAAAUCAAGGAUAUGGAGCCUUAUUGGCUCCAGAAGGUGGGACAUGAGGAUCACCCAUGUGGCAGUGGUCUAAUGACCAC [Fiskers NG1ss - 31] (Eterna round: R96, puzzle: Same State NG 1)",,,,0.0597,0.146,0.2
"AUGCCAAAUCAAGGAUAUGGAUCCUUAUUGGAUCCAGAAGGUGGGACAUGAGGAUCACCCAUGUGGCAGUGGUCUAAUGACCAC [Fiskers NG1ss - 30] (Eterna round: R96, puzzle: Same State NG 1)",,,,0.061,0.185,0.281
AUUAAACAUGAGGAUCACCCAUGUAUUAUUAUGGGAGGAUAUGCGAAUUUAAUUAAUUAAGCAGAAGGCCUAAUUA [Mat - Same State 1 - D102] (puzzle: Same State 1),0.0187,0.0983,0.141,,,
"AUUAAACAUGAGGAUCACCCAUGUCAACAAAGUCGAGGAUAUGGGCAAAUAAAAUAAGAACCAGAAGGCGAAUAAU [salish99_ss1_r3_048] (Eterna round: R96, puzzle: Same State 1)",,,,,0.193,
AUUAAACAUGAGGAUCACCCAUGUCAACAAAGUCGAGGAUAUGGGCAAAUAAAAUAAGAACCAGAAGGCGAAUAAU [salish99_ss1_r3_048] (puzzle: Same State 1),0.0316,0.357,0.555,,,
AUUAAACAUGAGGAUCACCCAUGUCAACAAAGUCGAGGAUAUGGGCAAAUAAAAUAAUAACCAGAAGGCGAAUAAU [salish99_ss1_r3_065] (puzzle: Same State 1),0.0378,0.353,0.295,,,
AUUAAACAUGAGGAUCACCCAUGUCAACAAAGUCGAGGAUAUGGGCUAAUAAAAUAAGAACCAGAAGGCGAAUAAU [salish99_ss1_r3_062] (puzzle: Same State 1),0.0268,0.185,0.211,,,
"AUUAAUAAUCGAGGAUAUCACGUCGAAUAGACGUGAGAAGGCGAUCAUAACAUGAGGAUCACCCAUGUAUUACAUGAAGUUAAU [SSNG1/4-B1] (Eterna round: R96, puzzle: Same State NG 1)",,,,,0.02,
"AUUAAUUAAUUAAUACAUGAGGAUCACCCAUGUAAUAAGAUCUAGGAUAUCAGCUCGAUUAGAGCUGAGAAGGAGAUCACAUGU [SSNG3/17-A2] (Eterna round: R96, puzzle: Same State NG 3)",,,,,0.0363,
"AUUACUAACAUAGGAUAUCAUGCGAAAAUUGCGUGAGAAGGGUGGACGCUGUCAUUCUCGGAGGACAUGAGGAUCACCCAUGUC [SameState NG1 #71] (Eterna round: R96, puzzle: Same State NG 1)",,,,0.118,0.103,0.0907
"AUUAGUUAUGCAGGAUAUGAUUAACAUGAGGAUCACCCAUGUGGUGUUGUGAGUAAGGAGAGUGAUCAGAAGGGCAUUUUUUUU [JMF's solution 67] (Eterna round: R96, puzzle: Same State NG 2)",,,,0.462,0.264,0.644
AUUAUACAUGAGGAUCACCCAUGUCAACGUAGUCGAGGAUAUGGGCAGCCGUGAGGCGUACUAGAAGGCGAAGAGA [Mat - Same State 1 - Mod of JL - D8] (puzzle: Same State 1),0.0843,0.235,0.385,,,
"AUUAUGAAUGCAGGAUAUGAUUAACAUGAGGAUCACCCAUGUGGUGUUGUGAGUAAGGAGAGUGAUCAGAAGGGCAUUUUUUUU [JMF's solution 25] (Eterna round: R96, puzzle: Same State NG 2)",,,,,0.465,
"AUUAUUAAUAUAGGAUAUGUAAAACAUGAGGAUCACCCAUGUGAUAUCGUGAGUAAGGAGAGAGAACAGAAGGAUAUUUUUUUU [JMF's solution 3] (Eterna round: R96, puzzle: Same State NG 2)",,,,0.0406,0.0305,0.0433
"AUUAUUAAUGCAGGAUAUGAUUAACAUGAGGAUCACCCAUGUGGUGUUGUGAGUAAGGAGAGUGAUCAGAAGGGCAUAUUUUUU [JMF's solution 9] (Eterna round: R96, puzzle: Same State NG 2)",,,,0.668,0.407,0.625
